Several values for one entry are separate records, joined by “and”; a condition that tells them apart may be missing. Equal values may be shown once.
T1: recombinant SPOCK1 protein (human, UniProt Q08629 22-439)
T1 sequence (looked up): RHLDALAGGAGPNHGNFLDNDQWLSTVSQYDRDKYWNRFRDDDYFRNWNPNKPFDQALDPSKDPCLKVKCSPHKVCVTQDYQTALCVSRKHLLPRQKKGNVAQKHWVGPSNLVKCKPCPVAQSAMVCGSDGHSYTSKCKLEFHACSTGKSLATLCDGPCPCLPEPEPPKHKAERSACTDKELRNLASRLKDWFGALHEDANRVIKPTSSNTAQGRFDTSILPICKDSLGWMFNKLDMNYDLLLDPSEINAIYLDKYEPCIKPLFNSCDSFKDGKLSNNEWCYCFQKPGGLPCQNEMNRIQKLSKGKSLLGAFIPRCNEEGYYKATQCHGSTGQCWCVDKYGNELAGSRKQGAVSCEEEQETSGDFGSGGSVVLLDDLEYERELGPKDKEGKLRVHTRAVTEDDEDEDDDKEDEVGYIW

T2: recombinant CNTNAP2 protein (human, UniProt Q9UHC6 28-1262)
T2 sequence (looked up): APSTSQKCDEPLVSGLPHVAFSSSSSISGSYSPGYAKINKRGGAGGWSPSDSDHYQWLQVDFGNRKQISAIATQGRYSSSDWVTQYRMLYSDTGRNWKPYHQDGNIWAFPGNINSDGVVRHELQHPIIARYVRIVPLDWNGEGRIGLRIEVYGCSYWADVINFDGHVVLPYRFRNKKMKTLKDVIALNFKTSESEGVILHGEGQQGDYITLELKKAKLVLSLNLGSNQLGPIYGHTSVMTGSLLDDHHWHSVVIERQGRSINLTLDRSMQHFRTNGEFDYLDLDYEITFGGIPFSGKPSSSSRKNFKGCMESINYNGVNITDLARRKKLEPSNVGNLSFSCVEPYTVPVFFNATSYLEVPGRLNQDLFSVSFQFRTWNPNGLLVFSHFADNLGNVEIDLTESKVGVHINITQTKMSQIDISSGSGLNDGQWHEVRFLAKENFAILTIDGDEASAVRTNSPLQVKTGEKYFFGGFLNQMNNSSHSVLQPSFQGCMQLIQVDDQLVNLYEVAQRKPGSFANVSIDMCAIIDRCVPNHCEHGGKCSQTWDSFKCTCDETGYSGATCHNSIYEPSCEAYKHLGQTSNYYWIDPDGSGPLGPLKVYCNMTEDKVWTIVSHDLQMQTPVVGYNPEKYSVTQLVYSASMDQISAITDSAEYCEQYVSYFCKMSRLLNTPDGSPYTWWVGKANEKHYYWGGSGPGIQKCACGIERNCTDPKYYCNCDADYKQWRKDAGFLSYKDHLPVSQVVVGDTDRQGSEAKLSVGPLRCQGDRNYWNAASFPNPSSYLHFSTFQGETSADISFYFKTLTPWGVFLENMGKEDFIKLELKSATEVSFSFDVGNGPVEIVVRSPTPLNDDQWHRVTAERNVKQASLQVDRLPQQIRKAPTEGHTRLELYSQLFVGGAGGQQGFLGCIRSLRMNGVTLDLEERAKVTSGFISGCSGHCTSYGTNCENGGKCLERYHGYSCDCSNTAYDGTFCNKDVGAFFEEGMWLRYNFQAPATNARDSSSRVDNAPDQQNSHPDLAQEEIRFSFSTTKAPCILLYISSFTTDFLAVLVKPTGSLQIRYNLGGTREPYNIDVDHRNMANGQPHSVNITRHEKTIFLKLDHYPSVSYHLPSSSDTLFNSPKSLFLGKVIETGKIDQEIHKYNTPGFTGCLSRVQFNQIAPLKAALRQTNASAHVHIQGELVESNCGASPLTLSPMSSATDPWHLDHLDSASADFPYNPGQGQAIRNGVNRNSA


How the values were obtained:
[1] = molecular target: T1, recombinant SPOCK1 protein; experiment: SPR with recombinant protein
[2] = molecular target: T3, recombinant Plasmodium falciparum circumsporozoite protein (CSP) (Plasmodium falciparum, UniProt Q7K740 21-375); experiment: SPR, recombinant CSP
T3 construct: also called recombinant CSP

[3] = molecular target: T3, recombinant Plasmodium falciparum …; experiment: binding affinity column of the in vivo table (SPR, CSP)
[4] = molecular target: T2, recombinant CNTNAP2 protein; experiment: SPR with recombinant protein
[5] = molecular target: recombinant Plasmodium falciparum circumsporozoite protein (CSP) (Plasmodium falciparum, UniProt P19597 21-375); experiment: cell-based or functional assay
Sequence of recombinant Plasmodium falciparum circumsporozoite protein (CSP) (Plasmodium falciparum, UniProt P19597 21-375) (P19597 21-375 limits assumed): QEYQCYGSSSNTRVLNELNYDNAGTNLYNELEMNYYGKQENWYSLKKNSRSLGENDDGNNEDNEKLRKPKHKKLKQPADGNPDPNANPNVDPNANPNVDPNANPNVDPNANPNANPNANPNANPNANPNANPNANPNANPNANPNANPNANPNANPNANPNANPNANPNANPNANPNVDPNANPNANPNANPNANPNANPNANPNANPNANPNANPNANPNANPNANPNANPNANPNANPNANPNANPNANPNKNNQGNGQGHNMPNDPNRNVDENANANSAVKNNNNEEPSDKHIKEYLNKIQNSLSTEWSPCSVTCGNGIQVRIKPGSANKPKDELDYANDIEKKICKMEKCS

T3 sequence (Q7K740 21-375 limits assumed): as the sequence (P19597 21-375 limits assumed) above

Binder | binding result [1] | Kd [2] | koff [2] [s⁻¹] | kon [2] [M⁻¹ s⁻¹] | Kd [3] [nM] | binding result [4] | EC50 in ADCP assay [5] [nM]
338-LS (antibody, V domains shown) VH: QVQLVESGGGVVQPGRSLRLSCAASGFSFSTYGMHWIRQVPGKGLEWVAIIWHDGSKEFYADSVKGRFTISRDNSKKKLYLQMNSLRAEDTAIYYCVKDDFDSSGHSYFHYWGQGTLVTVSS VL: GVVMTQSPLSLPVTLGQPASISCRSSQSLVHSDGNTYVHWFQQRPGQSPRRLIYKVSNRDSGVPDRFSGSGSGTDFTLKISRVEAEDVGVYYCMQGTQWWTFGQGTKVEIK | no binding (tested: 300 nM) |  |  |  |  |  | 
338-ALE-LS (antibody, human IgG1, kappa, V domains shown) VH: QVQLVESGGGVVQPGRSLRLSCAASGFSFSTYGMHWIRQVPGKGLEWVAIIWHDGSKEFYADSVKGRFTISRDNSKKKLYLQMNSLRAEDTAIYYCVKDDFDSSGHSYFHYWGQGTLVTVSS VL: GVVMTQSPLSLPVTLGQPASISCRSSQSLVHSDGNTYVHWFQQRPGQSPRRLIYKVSNRDSGVPDRFSGSGSGTDFTLKISRVEAEDVGVYYCMQGTQWWTFGQGTKVEIKR | no binding (tested: 300 nM) |  |  |  |  |  | 
AB-000356 LS (antibody, V domains shown) VH: QVQLVESGGGVVQPGRSLRLSCAASGFTFRNFGMHWVRQTPGKGLEWVAVIWHDGSNKFYADSVEGRFTISRDNSKNMIYLQMNSLRVEDTAIYYCARDSLFYDHDNSGYYGYWGQGTLVTVSS VL: QIVMTQSPATVSVSPGERATLSCRASRSVTSKLAWYQQKPGQAPRLLIYGASTRATGIPARFSGSGSGTEFTLTISSLQSEDFAVYFCQQYNNGFTFGPGTKVDFK |  | 2.46 nM | 0.00107 | 436000 | 2.46 |  | 
AB001480 (antibody, V domains shown) VH: QVQLVESGGGVVQPGRSLRLSCAASGFTFSFYGMHWVRQAPGKGLEWVAVIWYDGSNKYYADSVRGRFTISRDNSKNTLYLQMNSLRAEDTAVYYCARVGNDYDDHGSALDMWGQGTMVTVSS VL: DIQMTQSPSTLSASVGDRVTITCRASQSISSWLAWYQQKPGKAPKLLIYRASSLESGVPPRFSGSGSGTEFTLTISSLQPDDFGIYYCQQYNSRWTFGQGTKVEIK |  | 1.17 nM and 1.18 nM | 0.000659 | 561000 | 1.18 |  | 
356-ALE-LS (antibody, human IgG1, kappa) heavy: QVQLVESGGGVVQPGRSLRLSCAASGFTFRNFGMHWVRQTPGKGLEWVAVIWHDGSNKFYADSVEGRFTISRDNSKNMIYLQMNSLRVEDTAIYYCARDSLFYDHDNSGYYGYWGQGTLVTVSSASTKGPSVFPLAPSSKSTSGGTAALGCLVKDYFPEPVTVSWNSGALTSGVHTFPAVLQSSGLYSLSSVVTVPSSSLGTQTYICNVNHKPSNTKVDKKVEPKSCDKTHTCPPCPAPELLAGPSVFLFPPKPKDTLMISRTPEVTCVVVDVSHEDPEVKFNWYVDGVEVHNAKTKPREEQYNSTYRVVSVLTVLHQDWLNGKEYKCKVSNKALPLPEEKTISKAKGQPREPQVYTLPPSRDELTKNQVSLTCLVKGFYPSDIAVEWESNGQPENNYKTTPPVLDSDGSFFLYSKLTVDKSRWQQGNVFSCSVLHEALHSHYTQKSLSLSPGK light: not shown |  |  |  |  |  | no binding (tested: 300 nM) | < 0.001
356-DEA-FV-LS (antibody, human IgG1, kappa) heavy: QVQLVESGGGVVQPGRSLRLSCAASGFTFRNFGMHWVRQTPGKGLEWVAVIWHDGSNKFYADSVEGRFTISRDNSKNMIYLQMNSLRVEDTAIYYCARDSLFYDHDNSGYYGYWGQGTLVTVSSASTKGPSVFPLAPSSKSTSGGTAALGCLVKDYFPEPVTVSWNSGALTSGVHTFPAVLQSSGLYSLSSVVTVPSSSLGTQTYICNVNHKPSNTKVDKKVEPKSCDKTHTCPPCPAPELLAGPDVFLFPPKPKDVLMISRTPEVTCVVVDVSHEDPEVKFNWYVDGVEVHNFKTKPREEQYNSTYRVVSVLTVLHQDWLNGKEYKCKVSNKALPAPEEKTISKAKGQPREPQVYTLPPSRDELTKNQVSLTCLVKGFYPSDIAVEWESNGQPENNYKTTPPVLDSDGSFFLYSKLTVDKSRWQQGNVFSCSVLHEALHSHYTQKSLSLSPGK light: not shown |  |  |  |  |  | no binding (tested: 300 nM) | < 0.001
AB001387 (antibody, V domains shown) VH: QVQLVESGGGVVQPGRSLRLSCAASGFTFSNYGMHWVRQAPGKGLEWVAVIWYDGSNKFYADSVKGRFTSSRDNSKNTLYLQMNSLRAEDTAVYYCARDGRFLTTVTTAYFDYWGQGTLVTVSS VL: QSVLTQPPSVSGAPGQRVTISCTGSSSNIGAGYDVHWYQQLPGTAPKLLIYGNSNRPSGVPDRFSGSKSGTSASLAITGLQAEDEADYYCQSYDSSLSALVFGGGTKLTVL |  | 0.676 nM | 0.00111 | 1.65e+06 | 0.676 |  | 
AB-000222 (antibody, V domains shown) VH: QVQLVESGGGVVQPGRSLRLSCAASGFTFSNFGMHWVRQAPGKGLEWVAVIWYDGSKKYYADFVKGRFTISRDNSKYMLYLQMTSLGAEDTAIYYCARDIRGAYRVTDGGFDYWGQGALVTVSS VL: QFVLTQPPSVSGAPGQRVTISCTGSSFNIGAGYDVHWYQQLPEKAPKLLIYGSTNRASEVPDRFSGSKSGTSASLAITGLQPEDEADYYCQSYDSSLSGYVFGTGTKVTVL |  | 0.153 nM and 0.152 nM | 0.00118 | 7.76e+06 | 0.152 |  | 

Source: patent US20250296995A1 (GlaxoSmithKline, published 2025)
